Laboratory results as given in patent US20240018513A1, “SYNTHETIC INTRONS FOR TARGETED GENE EXPRESSION” (FRED HUTCHINSON CANCER CENTER, priority 2020, published 2024).

Key:
[1] = test system: WT K562 cells; experiment: Mini-screen: pooled synthetic intron mini-library in HSV-TK, GCV treatment, full-length intron sequencing from genomic DNA; format: cell-based; conditions: genotype WT (SF3B1+/+) K562; GCV 100 ug/mL; day 6; vector hPGK-PuroR-P2A-HSV-TK
Source text: (§1) Therefore, a massively parallel splicing assay was developed to map and functionally interrogate key sequence features within the synthetic intron. First, a pilot mini-library of eight synthetic introns was synthesized, seven of which were much shorter (lengths of 100-158 nt) than the parent synthetic intron (synMTERFD3i1-250), and each with one or more perturbations to potentially critical features (FIG. 2E). This mini-library was cloned into HSV-TK, introduced into WT or SF3B1-mutant K562 cells with a lentiviral vector at a low multiplicity of infection, and treated with GCV. Relative depletion of each construct was measured by high-throughput sequencing of the entire introns from genomic DNA after six days of treatment (TABLE 1).
(§2) Each synthetic intron used in the mini-library was ordered individually as a gBlock (Integrated DNA Technologies), consisting of the desired intron flanked by homology arms for cloning (5′ arm: […] (SEQ ID NO:158); 3′ arm: […] (SEQ ID NO:159; TABLE 3). The gBlocks were then mixed in equal proportions before being cloned into hPGK-PuroR-P2A-HSV-TK using a previously published strategy for pooled cloning (Thomas, J. D. et al. RNA isoform screens uncover the essentiality and tumor-suppressor activity of ultraconserved poison exons. Nature genetics 52, 84-94 (2020), incorporated herein by reference in its entirety). This intron mix was then amplified using NEBNext High Fidelity Ready Mix (New England Biolabs) and purified using 1.8×AMPure XP SPRI beads (Beckman Coulter). The backbone for the library was amplified using Q5 polymerase (New England Biolabs). The library was transformed and amplified using Endura ElectroCompetent Cells (Lucigen, 60242-2) and large LB plates. The library was maxiprepped using a Macherey-Nagel MaxiPrep kit (Thermo Fisher Scientific, Cat 740414.10).
(§3) WT or SF3B1-mutant K562 cells were infected with lentivirus encoding the mini-library at an MOI of 0.3 and untreated or treated with GCV (100 ug/mL) for 6 days. Genomic DNA was collected at day 6 and the resulting Illumina libraries were sequenced with 2×150 bp reads (Illumina MiSeq). Depletion/enrichment of each construct was estimated as follows. For each sample, reads were normalized to the total reads mapped. The relative fraction of reads mapping to each intron was then estimated by dividing the numbers of normalized reads mapped to an intron by the total reads mapped in the sample. The standard deviation was calculated using the sample proportion P for each intron (σ=sqrt [P(1−P)/n]). A fold-change was calculated for each intron by dividing the proportion of the intron in the treated GCV samples by the fraction of the intron in the untreated samples. Error propagation was used to estimate the standard deviation. The final relative fold-changes were computed by normalizing fold-changes such that the fold-change of synMTERFD3i1-250 in the pilot screen was identical to the experimentally measured fold-change in a single-construct experiment (FIG. 2C, 100 μg/mL of GCV).

[2] = test system: SF3B1-mutant K562 cells; experiment: as above; format: cell-based; conditions: genotype K700E (SF3B1+/K700E) K562; GCV 100 ug/mL; day 6; vector hPGK-PuroR-P2A-HSV-TK
Source text: as §1, §2, §3

Row | Molecule | fold-change (estimated fold-change in intron abundance in gDNA) [1] | fold-change (estimated fold-change in intron abundance in gDNA) [2]
1 | intron_13121: 150 nt control synthetic intron, GT_to_CC + AG_to_CC splice site mutations; SEQ ID NO 56/64 (nucleic acid) DNA 1: CCGAGTCGCCCCCTTCCTCTGCTCCGAGAGGGAAATGGGAATTAGGGTGGTGGCAGAGCCCAAAGAGGCCTTGTAGGCCATGGTAAGGCATTTCTATGTTTTATTTTACTTTGTCTTTATCCTAAAATGCCATTGGCAAGTTTATTGCCC DNA 2: CCGAGTCGCCCCCTTCCTCTGCTCCGAGAGGGAAATGGGAATTAGGGTGGTGGCAGAGCCCAAAGAGGCCTTGTAGGCCATGGTAAGGCATTTCTATGTTTTATTTTACTTTGTCTTTATCCTAAAATGCCATTGGCAAGTTTATTGCCC | 1.226 | 0.8961
2 | intron_8499: 150 nt synthetic intron, 89/95/102/107 AtoG branchpoint ablation; SEQ ID NO 61/69 (nucleic acid) DNA 1: GTGAGTCGCCCCCTTCCTCTGCTCCGAGAGGGAAATGGGAATTAGGGTGGTGGCAGAGCCCAAAGAGGCCTTGTAGGCCATGGTAAGGCGTTTCTGTGTTTTGTTTTGCTTTGTCTTTATCCTAAAATGCCATTGGCAAGTTTATTGCAG DNA 2: GTGAGTCGCCCCCTTCCTCTGCTCCGAGAGGGAAATGGGAATTAGGGTGGTGGCAGAGCCCAAAGAGGCCTTGTAGGCCATGGTAAGGCGTTTCTGTGTTTTGTTTTGCTTTGTCTTTATCCTAAAATGCCATTGGCAAGTTTATTGCAG | 1.15 | 0.2767
3 | intron_4095: 150 nt synthetic intron, 138_AtoC-139_GtoC (cryptic 3′ss at −11 removed); SEQ ID NO 60/68 (nucleic acid) DNA 1: GTGAGTCGCCCCCTTCCTCTGCTCCGAGAGGGAAATGGGAATTAGGGTGGTGGCAGAGCCCAAAGAGGCCTTGTAGGCCATGGTAAGGCATTTCTATGTTTTATTTTACTTTGTCTTTATCCTAAAATGCCATTGGCACCTTTATTGCAG DNA 2: GTGAGTCGCCCCCTTCCTCTGCTCCGAGAGGGAAATGGGAATTAGGGTGGTGGCAGAGCCCAAAGAGGCCTTGTAGGCCATGGTAAGGCATTTCTATGTTTTATTTTACTTTGTCTTTATCCTAAAATGCCATTGGCACCTTTATTGCAG | 0.3305 | 0.2637
4 | intron_2790: 150 nt synthetic intron, mutation 148_AtoG (canonical 3′ss); SEQ ID NO 59/67 (nucleic acid) DNA 1: GTGAGTCGCCCCCTTCCTCTGCTCCGAGAGGGAAATGGGAATTAGGGTGGTGGCAGAGCCCAAAGAGGCCTTGTAGGCCATGGTAAGGCATTTCTATGTTTTATTTTACTTTGTCTTTATCCTAAAATGCCATTGGCAAGTTTATTGCGG DNA 2: GTGAGTCGCCCCCTTCCTCTGCTCCGAGAGGGAAATGGGAATTAGGGTGGTGGCAGAGCCCAAAGAGGCCTTGTAGGCCATGGTAAGGCATTTCTATGTTTTATTTTACTTTGTCTTTATCCTAAAATGCCATTGGCAAGTTTATTGCGG | 1.042 | 0.7611
5 | intron_9600: 158 nt synthetic intron, insertion 89_TACTAACA consensus branchpoint; SEQ ID NO 62/70 (nucleic acid) DNA 1: GTGAGTCGCCCCCTTCCTCTGCTCCGAGAGGGAAATGGGAATTAGGGTGGTGGCAGAGCCCAAAGAGGCCTTGTAGGCCATGGTAAGGCTACTAACAATTTCTATGTTTTATTTTACTTTGTCTTTATCCTAAAATGCCATTGGCAAGTTTATTGCAG DNA 2: GTGAGTCGCCCCCTTCCTCTGCTCCGAGAGGGAAATGGGAATTAGGGTGGTGGCAGAGCCCAAAGAGGCCTTGTAGGCCATGGTAAGGCTACTAACAATTTCTATGTTTTATTTTACTTTGTCTTTATCCTAAAATGCCATTGGCAAGTTTATTGCAG | 1.112 | 0.2356
6 | intron_2258: 100 nt MTERFD3 intron 1-derived synthetic intron, deletion 15to65; SEQ ID NO 57/65 (nucleic acid, expressed or natural sequence) DNA 1: GTGAGTCGCCCCCTTAGGCCTTGTAGGCCATGGTAAGGCATTTCTATGTTTTATTTTACTTTGTCTTTATCCTAAAATGCCATTGGCAAGTTTATTGCAG DNA 2: GTGAGTCGCCCCCTTAGGCCTTGTAGGCCATGGTAAGGCATTTCTATGTTTTATTTTACTTTGTCTTTATCCTAAAATGCCATTGGCAAGTTTATTGCAG | 1.279 | 0.4996
